Laboratory results taken from patent US20050255559A1 (published 2005).

Target: human calcium sensitive potassium channel α subunit (human Slowpoke α) (human, UniProt Q12791 1-1236)
Assay: cell-based or functional assay

Sequence of human calcium sensitive potassium channel α subunit (human Slowpoke α) (Q12791 whole entry): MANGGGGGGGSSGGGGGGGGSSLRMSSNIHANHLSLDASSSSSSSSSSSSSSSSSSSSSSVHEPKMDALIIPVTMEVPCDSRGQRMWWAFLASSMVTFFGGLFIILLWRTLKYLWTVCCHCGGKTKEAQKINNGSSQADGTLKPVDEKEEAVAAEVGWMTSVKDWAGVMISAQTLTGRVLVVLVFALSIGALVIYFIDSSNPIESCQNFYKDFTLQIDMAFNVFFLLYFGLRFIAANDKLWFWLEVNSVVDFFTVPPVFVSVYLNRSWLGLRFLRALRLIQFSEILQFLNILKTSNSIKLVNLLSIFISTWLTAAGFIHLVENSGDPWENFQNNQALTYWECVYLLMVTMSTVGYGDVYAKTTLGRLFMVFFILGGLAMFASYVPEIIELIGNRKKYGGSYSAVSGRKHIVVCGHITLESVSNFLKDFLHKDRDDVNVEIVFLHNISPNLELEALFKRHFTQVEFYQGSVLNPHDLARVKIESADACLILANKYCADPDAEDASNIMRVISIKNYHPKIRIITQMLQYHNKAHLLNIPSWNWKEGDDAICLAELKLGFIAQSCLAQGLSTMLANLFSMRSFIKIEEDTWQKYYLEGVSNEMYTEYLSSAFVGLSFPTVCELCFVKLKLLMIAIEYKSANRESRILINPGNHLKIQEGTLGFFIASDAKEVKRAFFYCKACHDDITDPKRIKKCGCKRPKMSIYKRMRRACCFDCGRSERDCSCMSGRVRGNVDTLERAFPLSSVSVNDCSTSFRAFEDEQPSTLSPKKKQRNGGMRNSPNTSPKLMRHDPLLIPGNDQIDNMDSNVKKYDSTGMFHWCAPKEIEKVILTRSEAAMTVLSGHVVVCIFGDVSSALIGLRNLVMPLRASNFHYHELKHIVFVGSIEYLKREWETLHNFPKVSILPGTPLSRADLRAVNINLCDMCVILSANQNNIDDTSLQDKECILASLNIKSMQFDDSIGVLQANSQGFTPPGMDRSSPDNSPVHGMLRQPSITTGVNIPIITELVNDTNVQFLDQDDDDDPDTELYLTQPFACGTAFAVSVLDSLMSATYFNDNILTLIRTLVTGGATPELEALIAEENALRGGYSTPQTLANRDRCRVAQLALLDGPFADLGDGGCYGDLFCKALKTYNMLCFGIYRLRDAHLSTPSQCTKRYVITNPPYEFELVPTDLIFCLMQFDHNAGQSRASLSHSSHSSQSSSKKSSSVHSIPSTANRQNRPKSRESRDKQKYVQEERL

Binder	V1/2 (half-maximal activation voltage, Boltzmann fit, inside-out patches, 30 µM Ca2+) [mV]
human calcium sensitive potassium channel β2 subunit (other) MFIWTSGRTSSSYRHDEKRNIYQKIRDHDLLDKRKTVTALKAGEDRAILLGLAMMVCSIMMYFLLGITLLRSYMQSVWTEESQCTLLNASITETFNCSFSCGPDCWKLSQYPCLQVYVNLTSSGEKLLLYHTEETIKINQKCSYIPKCGKNFEESMSLVNVVMENFRKYQHFSCYSDPEGNQKSVILTKLYSSNVLFHSLFWPTCMMAGGVAIVAMVKLTQYLSLLCERIQRINR	-55
human calcium sensitive potassium channel β3c subunit (other) MFPLLYELTAVSPSPFPQRTAFPASGKKRETDYSDGDPLDVHKRLPSSTGEDRAVMLGFAMMGFSVLMFFLLGTTILKPFMLSIQREESTCTAIHTDIMDDWLDCAFTCGVHCHGQGKYPCLQVFVNLSHPGQKALLHYNEEAVQINPKCFYTPKCHQDRSDLLNSALDIKEFFDHKNGTPFSCFYSPASQSEDVILIKKYDQMAIFHCLFWPSLTLLGGALIVGMVRLTQHLSLLCEKYSTVVRDEVGGKVPYIEQHQFKLCIMRRSKGRAEKS	20
human calcium sensitive potassium channel β3a subunit (other) MQPFSIPVQITLQGSRRRQGRTAFPASGKKRETDYSDGDPLDVHKRLPSSTGEDRAVMLGFAMMGFSVLMFFLLGTTILKPFMLSIQREESTCTAIHTDIMDDWLDCAFTCGVHCHGQGKYPCLQVFVNLSHPGQKALLHYNEEAVQINPKCFYTPKCHQDRSDLLNSALDIKEFFDHKNGTPFSCFYSPASQSEDVILIKKYDQMAIFHCLFWPSLTLLGGALIVGMVRLTQHLSLLCEKYSTVVRDEVGGKVPYIEQHQFKLCIMRRSKGRAEKS	45.4
